From the NTF2 design screens of Basanta et al. (2020)

Test: protease stability score; higher = more stable; yeast display proteolysis, trypsin and chymotrypsin;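 further: relative to predicted unfolded state with 0 unfolded-like and 1 meaning tenfold more protease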

Sequence “RDEDEVVDHIARLIVEAWRTGDEDWLKKMADPNVKQHIHIDGKTEINHGREEMIHQLERLHRKLGVDHHHLKSSTVIGDKIKIHMEERIGDFSIFVHVEFIVINGRMKEIRISIERE” has a protease stability score of 0.931.
Work on “RDEDHELKEMRRMIHEIIMTGDEDKWKKMADPHVQLHIGDKHHHGRDHVSRILTELRVHHFDVEHIHHEFINGRATLRIEGTLHGIINGVEKKVETEIRIIIIKFNGVWYIESQEFHVI” yielded a protease stability score of 0.492.
“RDEDRDRHHAWREFERIMLTGDWRESEKLIDPHVRLDIDGRRHHGMEIYSTLLYHISTRADHIRVILDDIKVQGEKVEVDTIIDIHVGDKHIHIKTHIVASKINGRWFLHSLKID” showed a protease stability score of 0.929.
“RDEEEEARRMMEIFLEDVRTGDEDSLKELADPNVKSEINGVELVGREEVLKTLREILRELGVSNVEVRLHRIHVYDGRAHIDGRLNVNGRELEMHVDMEKVDGRWRIRRIELR” showed a protease stability score of 2.27.
Work on “RDEEEYAHRVLELWRFILETGDEDTLYELADPNVRFKFLQGNKEIHRHGRERMVEEIRTRREELGVKHIHLEHVEVWNGVVHLRVVVHFNGKELRSRIIIVVIDGVIKEIEIREE” yielded a protease stability score of 1.04.
“RDEESHLKHLAERIMKSWETGDEHTLRHLFDPNTRSHVEVGDKRWSFIGMENFDRWFRELHEEMGANHTTVHDTKIQGNKLTMDTRLLVGDKEIRTRLIFHIVDGRITHIIIKLE” gave a protease stability score of 1.31.
With “RDIEEINKRALESWKHALETGDEDTMEELLDPHVRVEDEHEMHHGRSAFHLWIKRVDHFRSLHIRETRIVGDKVDNNVEVDGTINGQDRLIEIRLVLVKFNGKWKFRSIHFK” the protease stability score was 1.38.
Sequence “RDIRELTLMMTKLIRKTDKTGDPRIAHELADPHYRFDFDGVEYHGREIVQHWMEKYPNVRFKVRHVDIVGDKARIEGTDNVDGQEIDTEYRVSKVDGRWHLEEIIFR” has a protease stability score of 0.487.
Work on “RDKERMVHFIANYVLHSVLTGDWKMLFDLLDPSMRLEIGEKDSHGRENAEKLLHEFLEKLGADHTDIRRSHVTFQGDKIIIIINTEIDINGVRHEIWVRVIILKIDGKWVLESIRIEIR” yielded a protease stability score of 1.54.
Sequence “RDLDEIARHVIELWKETYETGDERHLRELLDPNMRVEVNGVESHGREEMMKHMVKYAREIRITEIIDRDTDSQGNKLHIHGEIIVEQGDKKHRYTLDVTFFVVDGRIKHLHFRSK” has a protease stability score of 1.2.
Work on “RDMEHIMKELIHFVLHAVMTGDEEKMRQYADPHVKLNYNGVEVVGMEEILKIWRHIRIEIEDHTVEHISVVDGKLRSDTRVDVHIEFNGRHIRENLHTHVIIYKVDGRWVFKEVRIK” yielded a protease stability score of 1.84.
For “RDSEEKDKIFLSIVESAILTGDPETSEKMADPNVRIDFNGKDLVGREDYHRFVKRWLEEARFHKLVIHELRHVDGRMDSHTQEIVDIDGRRYTHDTHIIMLKIDGRWILHSKTVR”, the protease stability score was 0.986.
With “RDTEETVENASKRWVRTMETGDEDVLHRLLDPHVRVEAENHEIHGREIVSTHIREILEKLGMTIHIHLKDVRVQGNKAEIDMHIEYIIDGRITSHDYTLINRKINGRWLVERVIIN” the protease stability score was 0.31.
“RDVEHLLEKWMEDHMEALHTGDEDRIHELLDPHVRVHIDGVNLHGRERAVEFMVRSLRELGIKHIKLDVEDVEVQGEKVIIDLRVNLDYDGREHRDKEIIILLKIDGKWVIEEVRRG” showed a protease stability score of 1.07.
Sequence “REDDEMSEEANRLLHELVRTGDFEQLIKNMDPNTRLRQGDKHFHGREEYEKHWRELLERAGLERVELHIDDIRVFNGVAHINGTLRIGDKVMEVRLILTKFNGKWIFTSMEIH” has a protease stability score of 1.26.
Work on “REDDERIDEMVELIFHWEQTGDEEKVYNNMDPHVRIDYNGRELHGWKKFTEELRLIYEEMRLKHIHISHQTIQGEKAIVHVELEGQVGDKRYIHRREIIVLKIDGKWIIKMVRFV” yielded a protease stability score of 1.49.
Work on “REDEDAVREWALKFLESSLTGDEHFLKNLMDPHARLVIGDKHFHGREEVVRTWREFLTKFKNVRHDLHDINIQGDKVDVVENLVFDGVRTRTRITMRKVDGRWVITDIVIE” yielded a protease stability score of 2.08.
“REDEEFAIHMFLNLIRWLMTGDEEQLEELADPDTKYHQGDKTLHGREEFLKWFHLMHKWLGIKHIEMRITDLRAVDGRVESEVSVDEHYDGRTKRYRTIIIVNVVNGKLKSEERHID” gave a protease stability score of 1.22.
In the case of “REDEEHTKELLDAWQEAVETGDEDFILELFDPHVRSQVGDKERHGRHSFLELLRRLLEELGFDHVQFHITHREIQGDKITVETRLIFEYGDKRLEVQVEVEVKKINGRWYIHSVRWK”, the protease stability score was 1.87.
“REDEEITHKLLELLLTVIRTGDEQEMLNLLDPNTRHDVNGKHLHGRETAHRLFHEWSRHMRIHDLEIHDEKKIGNKVHIDGRLDGHIDGKREKIEVEFVIVKIDGRWVINSMTIK” gave a protease stability score of 0.931.
With “REDEELVKQVVKDFDHAVETGDEDRLRELLDPDVRISQGDKEFHGREDYELHLRQWRYENHRVHDVRIYGDKARIHGHLHLKIGDKHLEVETILILHKVNGRWRVRHLEIR” the protease stability score was 1.83.
“REDEEMAEKISEFIFHVLETGDEKSNHENIDPNARTHIGDKHSHGRENVTRMMDWWMHFLGVKHIEKKDLEIQGNFAFLHSISVVGDKTFEIDVTALKVNGQWVFKKFQVN” gave a protease stability score of 1.64.
“REDEEMIEHAVRREIHSYYTGDWEKHYKLLDPNALIHIDINGRQENIHGREEIMRFWYERFKDFGFDHMEIKRITLVDGKLHIFSIIDVNGVRIELEIIIVKVDGRWRLHTMRYHYH” showed a protease stability score of 0.652.
Work on “REDEEQMSRFIKEMIHLLRTGDEDRLHELIDPHTRLDFDGKEIHGREEWSQFLKEIRFRRFEVKDFEIVNGVANVDGKMHGEFDGQRFTTRVHIYNVKINGRWVHKWEEIG” yielded a protease stability score of 1.32.
In the case of “REDEEWLERLLRIIEKAMRTGDEQLTKELFDPNVRLEVGDKIIIGWEELTKIMHEMRVRDSRIHRVRTVGDKVEADTTVNGEIDGREFETEVRIEMLKVDGQWVVDKVHFK”, the protease stability score was 1.89.
For “REDEKFRDYATHWLEKYVRTGDENLMEELIDPDVRVHVNGQENHGMDEMRKWMLELRIEHIIIRRIEIHVYDGVIEINIDSETRVNFNGRKIRTKVHIHTETRKIDGRWSISHLELRFK”, the protease stability score was 1.07.
With “REDEKLFEEVLRELVKWLTTGDEKQMRDLFDPNARREVNGVEVHGWEEFLRHVREDRKRYDHVKDIEIHHIDIQGDKLEINVTLVGHIDGKEDVIIFTILLRKVNGKWIVKEIQFH” the protease stability score was 1.52.
“REDEQDLRKFVEDLIHSLKTGDEDSTSRLLDPHVRVEIGDKEFVGREDFTRLMVETVRRYDHIRFDLRRVEDIDGKAHIHGHIYIRVNGVWHHKEVEIIIDKINGKWVIRELRVK” showed a protease stability score of 2.33.
“REDEQLFHEMLRRVIHALLTGDEQILADLLDPRMRIMYDGVSRHGWHDFIEVLRDLGFDHLILKDYRIQGDYVRFHFIIEQGDKHHTVEIHVQIWDGKVEQIVVNYR” showed a protease stability score of 2.04.
Sequence “REDEREAEEFLRKLLHDIRTGDEESISRMIDPHVRVIYNGVEVIGRERALEVFKKFLEEIRIDTYHVHKVDMINGKMHADTRLRWEINGQRDTSTMLIVVEKVNGRWFLHSVVIS” has a protease stability score of 1.97.
With “REDERISQIAIEIVEHLIRTGDERVESELADPHMKLRINGVEIHGRERVHDWIHRFVTEFGIDRVEARVHDSHVVNGRIYNDTESHINGKNVKMRWIAIKYNGRWIQTMITFE” the protease stability score was 1.3.
For “REDKKDAEDIIRWLLRAWHTGDPRDVEKMMDPNTLSDINGQKIHGREDVSRFNEFILRHARVEVDVHSMEVYGNYLHVDERFTLRIGDKEIRTETHIIIIKVNGRWLVQTISYG”, the protease stability score was 0.782.
Work on “REDVEDFKRFIELEVHAHETGDEDLLRKLLDPHVRVIIDGVTIVGWKALRDLLERFDHYTIHHMHIEDLRIQGDKIIVDLRLDLIFNYNGRHLRVDSHARIIMIKYNGRWYNHSIEFE” yielded a protease stability score of 2.12.
For “REEDEIAENLFRLWIKSFLTGDFNTLRKLMDPHVRIHINGQEIHGREDFVRLLWEEFRRLGAKFHIEIKHLDVQGDKVFSEGTLRIEQGNKKDSKSVLIELIVVDGVITEIRMDVR”, the protease stability score was 2.25.
“REEDEQLKRFTDEFIQVQRTGNEDLLREYADPNVKIVVGDKELHGREEMLYVFREIRVHNSELKRMHIIDGRAEVHVTAHVRQGDKVIEVKLHIIIYKIDGRWVIESMQWE” gave a protease stability score of 1.01.
“REEDERDHRISELLFDLWVTGDWEIFHHLADPNVKANINGQETHGREKIMRIMMRMIHEFGFKHIQLEDSTVINGRVHQQIKVRVGDKSEEFNIHHHVVDGKIKHIHIEVR” showed a protease stability score of 1.36.
